Residue numbers refer to the chain shown, from its start. Numbers in names are those of the source.

Data set [1] has as its target T1, I211R mutant Kvβ2 expressed in complex with the T1 domain (rat, UniProt P62483 36-367, I211R).
T1 sequence (looked up): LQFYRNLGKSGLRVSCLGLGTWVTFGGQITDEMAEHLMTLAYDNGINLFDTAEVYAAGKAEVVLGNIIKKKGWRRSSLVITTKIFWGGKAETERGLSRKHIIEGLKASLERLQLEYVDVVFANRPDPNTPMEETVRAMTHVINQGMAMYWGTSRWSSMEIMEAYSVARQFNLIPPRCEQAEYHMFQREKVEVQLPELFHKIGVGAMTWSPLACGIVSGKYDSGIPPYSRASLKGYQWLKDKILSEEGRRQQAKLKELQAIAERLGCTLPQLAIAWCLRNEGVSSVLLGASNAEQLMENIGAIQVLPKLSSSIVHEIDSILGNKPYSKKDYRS
The experiment in a line: pull-down.

Data set [2] deals with the molecule itself. Put plainly: crystal structure.

B1: T1 domain of Kv1.1 (residues 2 to 135), fusion with N-terminal 6-histidine tag and SUMO protein (domain or fragment, rat, UniProt P10499 2-135, looked up)
chain: TVMSGENADEASAAPGHPQDGSYPRQADHDDHECCERVVINISGLRFETQLKTLAQFPNTLLGNPKKRMRYFDPLRNEYFFDRNRPSFDAILYYYQSGGRLRRPVNVPLDMFSEEIKFYELGEEAMEKFREDEG
In the case of B1, the binding result in data set [1] is given as “binds”.

B2: Kvβ2 conserved core (residues 36 to 367), purified and co-crystallized with cortisone (domain or fragment, rat, UniProt P62483 36-367, looked up)
chain: T1 sequence (looked up) with R176I
By stoichiometry N is commonly meant the number of molecules, sites or subunits per partner or assembly. Consider B2, for which, in data set [2], the “stoichiometry N” value stood at 4.

B3: I211R mutant Kvβ2, co-crystallized with 2 mM cortisone (domain or fragment, rat, UniProt P62483 36-367, looked up)
chain: T1 sequence (looked up)
As for B3, in data set [2], the binding result was “binds”.

B4: W121A mutant Kvβ2, co-crystallized with cortisone (domain or fragment, rat, UniProt P62483 36-367, looked up)
chain: T1 sequence (looked up) with W86A, R176I
B4: the binding result in data set [2] was “binds”.

The values are drawn from article PMC2633621 (Nature chemical biology, 2008).
